Source: article PMC9663165, “Human immunomodulatory ligand B7-1 mediates synaptic remodeling via the p75 neurotrophin receptor” (The Journal of Clinical Investigation, 2022)

T1: full-length human p75 neurotrophin receptor fused at the cytoplasmic C-terminus to GFP (human, UniProt P08138 29-427)
T1 construct: As query against the GFP-tagged library it carried the opposite colour tag (mCherry); kept as one molecule; also called p75^NTR; NGFR; source: HEK293 suspension cells, transiently transfected, on cells; not shown: GFP, C-terminal, kept
T1 sequence (looked up): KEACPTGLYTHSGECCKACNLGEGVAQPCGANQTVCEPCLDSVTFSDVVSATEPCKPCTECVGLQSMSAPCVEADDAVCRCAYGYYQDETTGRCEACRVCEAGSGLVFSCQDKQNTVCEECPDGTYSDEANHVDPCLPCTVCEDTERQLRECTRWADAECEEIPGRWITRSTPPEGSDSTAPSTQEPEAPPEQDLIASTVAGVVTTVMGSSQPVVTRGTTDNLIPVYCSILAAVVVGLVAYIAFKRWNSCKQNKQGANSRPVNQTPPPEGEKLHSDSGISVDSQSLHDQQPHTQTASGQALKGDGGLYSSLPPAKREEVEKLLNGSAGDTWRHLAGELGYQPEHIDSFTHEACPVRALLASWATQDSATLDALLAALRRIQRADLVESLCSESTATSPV


Key:
[1] = target: T2, CD28-GFP (human, UniProt P10747 19-220); assay: flow cytometry on cells; cell-cell conjugates: HEK293F cells expressing 92 B7-1–mCherry point mutants (IgV domain) against HEK293F cells expressing CTLA-4–GFP, CD28-GFP or p75NTR-GFP; percent of WT binding; details: partners not purified
T2 construct: human CD28, member of the human Ig superfamily library; source: HEK293F, transfected, on cells; not shown: GFP, C-terminal, kept

[2] = target: T1, full-length human p75 neurotrophin …; assay: as above; details: partners not purified

Row | loss in binding relative to WT [1] [%] | loss in binding relative to WT [2] [%] | Binder
1 | > 25 |  | hB7-1 V45D–mCherry (ligand, human, UniProt P33681 35-288, looked up, human B7-1 (CD80), point mutant in the IgV domain; source: HEK293F, transfected, on cells) VIHVTKEVKEDATLSCGHNVSVEELAQTRIYWQKEKKMVLTMMSGDMNIWPEYKNRTIFDITNNLSIVILALRPSDEGTYECVVLKYEKDAFKREHLAEVTLSVKADFPTPSISDFEIPTSNIRRIICSTSGGFPEPHLSWLENGEELNAINTTVSQDPETELYAVSSKLDFNMTTNHSFMCLIKYGHLRVNQTFNWNTTKQEHFPDNLLPSWAITLISVNGIFVICCLTYCFAPRCRERRRNERLRRESVRPV
2 | > 25 |  | hB7-1 L131D–mCherry (ligand, human, UniProt P33681 35-288, looked up, human B7-1 (CD80), point mutant in the IgV domain; source: HEK293F, transfected, on cells) VIHVTKEVKEVATLSCGHNVSVEELAQTRIYWQKEKKMVLTMMSGDMNIWPEYKNRTIFDITNNLSIVILALRPSDEGTYECVVLKYEKDAFKREHDAEVTLSVKADFPTPSISDFEIPTSNIRRIICSTSGGFPEPHLSWLENGEELNAINTTVSQDPETELYAVSSKLDFNMTTNHSFMCLIKYGHLRVNQTFNWNTTKQEHFPDNLLPSWAITLISVNGIFVICCLTYCFAPRCRERRRNERLRRESVRPV
3 | > 25 | > 25 | hB7-1 Y65A–mCherry (ligand, human, UniProt P33681 35-288, looked up, human B7-1 (CD80), point mutant in the IgV domain; source: HEK293F, transfected, on cells) VIHVTKEVKEVATLSCGHNVSVEELAQTRIAWQKEKKMVLTMMSGDMNIWPEYKNRTIFDITNNLSIVILALRPSDEGTYECVVLKYEKDAFKREHLAEVTLSVKADFPTPSISDFEIPTSNIRRIICSTSGGFPEPHLSWLENGEELNAINTTVSQDPETELYAVSSKLDFNMTTNHSFMCLIKYGHLRVNQTFNWNTTKQEHFPDNLLPSWAITLISVNGIFVICCLTYCFAPRCRERRRNERLRRESVRPV
4 | > 25 |  | hB7-1 K139D–mCherry (ligand, human, UniProt P33681 35-288, looked up, human B7-1 (CD80), point mutant in the IgV domain; source: HEK293F, transfected, on cells) VIHVTKEVKEVATLSCGHNVSVEELAQTRIYWQKEKKMVLTMMSGDMNIWPEYKNRTIFDITNNLSIVILALRPSDEGTYECVVLKYEKDAFKREHLAEVTLSVDADFPTPSISDFEIPTSNIRRIICSTSGGFPEPHLSWLENGEELNAINTTVSQDPETELYAVSSKLDFNMTTNHSFMCLIKYGHLRVNQTFNWNTTKQEHFPDNLLPSWAITLISVNGIFVICCLTYCFAPRCRERRRNERLRRESVRPV
5 | > 25 | > 25 | hB7-1 T39A–mCherry (ligand, human, UniProt P33681 35-288, looked up, human B7-1 (CD80), point mutant in the IgV domain; source: HEK293F, transfected, on cells) VIHVAKEVKEVATLSCGHNVSVEELAQTRIYWQKEKKMVLTMMSGDMNIWPEYKNRTIFDITNNLSIVILALRPSDEGTYECVVLKYEKDAFKREHLAEVTLSVKADFPTPSISDFEIPTSNIRRIICSTSGGFPEPHLSWLENGEELNAINTTVSQDPETELYAVSSKLDFNMTTNHSFMCLIKYGHLRVNQTFNWNTTKQEHFPDNLLPSWAITLISVNGIFVICCLTYCFAPRCRERRRNERLRRESVRPV
6 | > 25 |  | hB7-1 R63D–mCherry (ligand, human, UniProt P33681 35-288, looked up, human B7-1 (CD80), point mutant in the IgV domain; source: HEK293F, transfected, on cells) VIHVTKEVKEVATLSCGHNVSVEELAQTDIYWQKEKKMVLTMMSGDMNIWPEYKNRTIFDITNNLSIVILALRPSDEGTYECVVLKYEKDAFKREHLAEVTLSVKADFPTPSISDFEIPTSNIRRIICSTSGGFPEPHLSWLENGEELNAINTTVSQDPETELYAVSSKLDFNMTTNHSFMCLIKYGHLRVNQTFNWNTTKQEHFPDNLLPSWAITLISVNGIFVICCLTYCFAPRCRERRRNERLRRESVRPV
7 |  | > 25 | hB7-1 Y121D–mCherry (ligand, human, UniProt P33681 35-288, looked up, human B7-1 (CD80), point mutant in the IgV domain; source: HEK293F, transfected, on cells) VIHVTKEVKEVATLSCGHNVSVEELAQTRIYWQKEKKMVLTMMSGDMNIWPEYKNRTIFDITNNLSIVILALRPSDEGTYECVVLKDEKDAFKREHLAEVTLSVKADFPTPSISDFEIPTSNIRRIICSTSGGFPEPHLSWLENGEELNAINTTVSQDPETELYAVSSKLDFNMTTNHSFMCLIKYGHLRVNQTFNWNTTKQEHFPDNLLPSWAITLISVNGIFVICCLTYCFAPRCRERRRNERLRRESVRPV
8 | > 25 | > 25 | hB7-1 S49A–mCherry (ligand, human, UniProt P33681 35-288, looked up, human B7-1 (CD80), point mutant in the IgV domain; source: HEK293F, transfected, on cells) VIHVTKEVKEVATLACGHNVSVEELAQTRIYWQKEKKMVLTMMSGDMNIWPEYKNRTIFDITNNLSIVILALRPSDEGTYECVVLKYEKDAFKREHLAEVTLSVKADFPTPSISDFEIPTSNIRRIICSTSGGFPEPHLSWLENGEELNAINTTVSQDPETELYAVSSKLDFNMTTNHSFMCLIKYGHLRVNQTFNWNTTKQEHFPDNLLPSWAITLISVNGIFVICCLTYCFAPRCRERRRNERLRRESVRPV

More lines, now with the values behind:

Row | Binder | loss in binding relative to WT [1] [%] | loss in binding relative to WT [2] [%]
9 | hB7-1 E41A–mCherry (ligand, human, UniProt P33681 35-288, looked up, human B7-1 (CD80), point mutant in the IgV domain; source: HEK293F, transfected, on cells) VIHVTKAVKEVATLSCGHNVSVEELAQTRIYWQKEKKMVLTMMSGDMNIWPEYKNRTIFDITNNLSIVILALRPSDEGTYECVVLKYEKDAFKREHLAEVTLSVKADFPTPSISDFEIPTSNIRRIICSTSGGFPEPHLSWLENGEELNAINTTVSQDPETELYAVSSKLDFNMTTNHSFMCLIKYGHLRVNQTFNWNTTKQEHFPDNLLPSWAITLISVNGIFVICCLTYCFAPRCRERRRNERLRRESVRPV | > 25 | 
10 | hB7-1 I36A–mCherry (ligand, human, UniProt P33681 35-288, looked up, human B7-1 (CD80), point mutant in the IgV domain; source: HEK293F, transfected, on cells) VAHVTKEVKEVATLSCGHNVSVEELAQTRIYWQKEKKMVLTMMSGDMNIWPEYKNRTIFDITNNLSIVILALRPSDEGTYECVVLKYEKDAFKREHLAEVTLSVKADFPTPSISDFEIPTSNIRRIICSTSGGFPEPHLSWLENGEELNAINTTVSQDPETELYAVSSKLDFNMTTNHSFMCLIKYGHLRVNQTFNWNTTKQEHFPDNLLPSWAITLISVNGIFVICCLTYCFAPRCRERRRNERLRRESVRPV | > 25 | 
11 | hB7-1 E69A–mCherry (ligand, human, UniProt P33681 35-288, looked up, human B7-1 (CD80), point mutant in the IgV domain; source: HEK293F, transfected, on cells) VIHVTKEVKEVATLSCGHNVSVEELAQTRIYWQKAKKMVLTMMSGDMNIWPEYKNRTIFDITNNLSIVILALRPSDEGTYECVVLKYEKDAFKREHLAEVTLSVKADFPTPSISDFEIPTSNIRRIICSTSGGFPEPHLSWLENGEELNAINTTVSQDPETELYAVSSKLDFNMTTNHSFMCLIKYGHLRVNQTFNWNTTKQEHFPDNLLPSWAITLISVNGIFVICCLTYCFAPRCRERRRNERLRRESVRPV | > 25 | 
12 | hB7-1 K43D–mCherry (ligand, human, UniProt P33681 35-288, looked up, human B7-1 (CD80), point mutant in the IgV domain; source: HEK293F, transfected, on cells) VIHVTKEVDEVATLSCGHNVSVEELAQTRIYWQKEKKMVLTMMSGDMNIWPEYKNRTIFDITNNLSIVILALRPSDEGTYECVVLKYEKDAFKREHLAEVTLSVKADFPTPSISDFEIPTSNIRRIICSTSGGFPEPHLSWLENGEELNAINTTVSQDPETELYAVSSKLDFNMTTNHSFMCLIKYGHLRVNQTFNWNTTKQEHFPDNLLPSWAITLISVNGIFVICCLTYCFAPRCRERRRNERLRRESVRPV | > 25 | > 25
13 | hB7-1 K127D–mCherry (ligand, human, UniProt P33681 35-288, looked up, human B7-1 (CD80), point mutant in the IgV domain; source: HEK293F, transfected, on cells) VIHVTKEVKEVATLSCGHNVSVEELAQTRIYWQKEKKMVLTMMSGDMNIWPEYKNRTIFDITNNLSIVILALRPSDEGTYECVVLKYEKDAFDREHLAEVTLSVKADFPTPSISDFEIPTSNIRRIICSTSGGFPEPHLSWLENGEELNAINTTVSQDPETELYAVSSKLDFNMTTNHSFMCLIKYGHLRVNQTFNWNTTKQEHFPDNLLPSWAITLISVNGIFVICCLTYCFAPRCRERRRNERLRRESVRPV | > 25 | 
14 | hB7-1 I36D–mCherry (ligand, human, UniProt P33681 35-288, looked up, human B7-1 (CD80), point mutant in the IgV domain; source: HEK293F, transfected, on cells) VDHVTKEVKEVATLSCGHNVSVEELAQTRIYWQKEKKMVLTMMSGDMNIWPEYKNRTIFDITNNLSIVILALRPSDEGTYECVVLKYEKDAFKREHLAEVTLSVKADFPTPSISDFEIPTSNIRRIICSTSGGFPEPHLSWLENGEELNAINTTVSQDPETELYAVSSKLDFNMTTNHSFMCLIKYGHLRVNQTFNWNTTKQEHFPDNLLPSWAITLISVNGIFVICCLTYCFAPRCRERRRNERLRRESVRPV | > 25 | > 25
15 | hB7-1 K120D–mCherry (ligand, human, UniProt P33681 35-288, looked up, human B7-1 (CD80), point mutant in the IgV domain; source: HEK293F, transfected, on cells) VIHVTKEVKEVATLSCGHNVSVEELAQTRIYWQKEKKMVLTMMSGDMNIWPEYKNRTIFDITNNLSIVILALRPSDEGTYECVVLDYEKDAFKREHLAEVTLSVKADFPTPSISDFEIPTSNIRRIICSTSGGFPEPHLSWLENGEELNAINTTVSQDPETELYAVSSKLDFNMTTNHSFMCLIKYGHLRVNQTFNWNTTKQEHFPDNLLPSWAITLISVNGIFVICCLTYCFAPRCRERRRNERLRRESVRPV | > 25 | 
16 | hB7-1 K40D–mCherry (ligand, human, UniProt P33681 35-288, looked up, human B7-1 (CD80), point mutant in the IgV domain; printed once as K40D and once as Y40D; also called Y40D; source: HEK293F, transfected, on cells) VIHVTDEVKEVATLSCGHNVSVEELAQTRIYWQKEKKMVLTMMSGDMNIWPEYKNRTIFDITNNLSIVILALRPSDEGTYECVVLKYEKDAFKREHLAEVTLSVKADFPTPSISDFEIPTSNIRRIICSTSGGFPEPHLSWLENGEELNAINTTVSQDPETELYAVSSKLDFNMTTNHSFMCLIKYGHLRVNQTFNWNTTKQEHFPDNLLPSWAITLISVNGIFVICCLTYCFAPRCRERRRNERLRRESVRPV | > 25 | > 25
